From PMC4087533 (Nature, 2014)

Key:
[1] = molecular target: mechanosensitive channel of large conductance (MscL) from Mycobacterium tuberculosis (tag-removed) (Mycobacterium tuberculosis); test: native MS
native MS = molecular target: the molecule itself; test: native MS

Sequence of mechanosensitive channel of large conductance (MscL) from Mycobacterium tuberculosis (tag-removed) (natural protein) (A5U127 whole entry): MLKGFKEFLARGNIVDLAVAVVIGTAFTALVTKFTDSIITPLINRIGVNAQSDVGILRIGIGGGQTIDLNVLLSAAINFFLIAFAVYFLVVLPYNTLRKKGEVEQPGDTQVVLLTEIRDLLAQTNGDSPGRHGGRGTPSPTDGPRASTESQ

Molecule | stoichiometry N [1] | stoichiometry N (native MS)
mechanosensitive channel of large conductance (MscL) from Mycobacterium tuberculosis (tag-removed) (natural protein) | 5 | 
ammonia channel AmtB from E. coli (tag-removed) (natural protein) GASVADKADNAFMMICTALVLFMTIPGIALFYGGLIRGKNVLSMLTQVTVTFALVCILWVVYGYSLAFGEGNNFFGNINWLMLKNIELTAVMGSIYQYIHVAFQGSFACITVGLIVGALAERIRFSAVLIFVVVWLTLSYIPIAHMVWGGGLLASHGALDFAGGTVVHINAAIAGLVGAYLIGKRVGFGKEAFKPHNLPMVFTGTAILYIGWFGFNAGSAGTANEIAALAFVNTVVATAAAILGWIFGEWALRGKPSLLGACSGAIAGLVGVTPACGYIGVGGALIIGVVAGLAGLWGVTMLKRLLRVDDPCDVFGVHGVCGIVGCIMTGIFAASSLGGVGFAEGVTMGHQLLVQLESIAITIVWSGVVAFIGYKLADLTVGLRVPEEQEREGLDVNSHGENAYNA |  | 3
